The target in test [1] is T1, human gp130 extracellular domain with the Fc portion of mouse IgG2a at the C-terminus (human).
T1 construct: Dimeric; also called hGP130-mFc; dimeric GP130 protein
T1 chain: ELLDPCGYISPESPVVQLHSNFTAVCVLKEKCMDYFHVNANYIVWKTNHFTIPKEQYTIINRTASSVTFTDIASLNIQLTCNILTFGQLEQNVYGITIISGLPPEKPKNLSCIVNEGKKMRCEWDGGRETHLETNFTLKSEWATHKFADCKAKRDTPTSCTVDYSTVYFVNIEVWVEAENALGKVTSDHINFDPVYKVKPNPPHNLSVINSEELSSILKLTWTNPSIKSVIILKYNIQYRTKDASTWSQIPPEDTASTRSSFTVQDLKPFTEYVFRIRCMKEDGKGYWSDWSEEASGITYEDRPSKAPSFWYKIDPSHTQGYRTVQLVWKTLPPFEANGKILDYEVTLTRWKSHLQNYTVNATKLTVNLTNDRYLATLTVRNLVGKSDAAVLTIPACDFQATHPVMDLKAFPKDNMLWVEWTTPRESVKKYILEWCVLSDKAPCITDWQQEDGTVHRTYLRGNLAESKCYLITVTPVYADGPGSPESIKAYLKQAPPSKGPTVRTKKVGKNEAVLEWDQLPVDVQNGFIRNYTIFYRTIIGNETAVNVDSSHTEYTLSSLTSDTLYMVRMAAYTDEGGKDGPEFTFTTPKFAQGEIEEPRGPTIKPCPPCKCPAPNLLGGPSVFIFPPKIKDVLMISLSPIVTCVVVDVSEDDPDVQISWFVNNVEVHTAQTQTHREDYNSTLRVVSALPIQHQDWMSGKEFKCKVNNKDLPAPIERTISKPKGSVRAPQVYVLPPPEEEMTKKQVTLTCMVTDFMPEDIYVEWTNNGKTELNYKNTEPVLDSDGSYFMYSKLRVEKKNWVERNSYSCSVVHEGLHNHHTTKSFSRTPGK
The experiment in a line: blocking ELISA, 2.5 nM hGP130-mFc to plate-bound CNTFR/CNTF complex; * below the lower limit of quantitation of 1.25E-09 M. On the procedure:
The experiment was carried out using the following procedure. Human CNTFRα was coated at a concentration of […] in HBSS on a 96-well microtiter plate overnight at 4° C. […] Human CNTF at a concentration of 1 μg/ml in HBSS was added to the plate bound CNTFRα for 1 hour at room temperature. In separate dilution plates, a constant amount of 2.5 nM of human GP130-mFc protein was titrated with antibodies ranging from 3.4 pM to 200 nM in serial dilution and with no antibody present. These solutions were incubated for 1 hour at room temperature (RT) and subsequently transferred to the microtiter plates with CNTFRα/CNTF complex without washing. The plates were incubated for 2 hours at RT, washed with PBST buffer, and plate-bound hGP130-mFc was detected with an anti-mFc polyclonal antibody conjugated with horseradish peroxidase (HRP) (Jackson ImmunoResearch Inc). Samples were developed with a TMB solution (BD Biosciences, substrate A and B mixed at 1:1 ratio as per manufacturer's instructions) to produce a colorimetric reaction and then neutralized with 1M sulfuric acid before measuring absorbance at 450 nm on a Victor ×5 plate reader.

For test [2], the target named is T2, human gp130 expressed endogenously on IMR-32/Stat3-luc cells (human, UniProt P40189 23-918).
T2 construct: whole, on cells
T2 sequence (looked up): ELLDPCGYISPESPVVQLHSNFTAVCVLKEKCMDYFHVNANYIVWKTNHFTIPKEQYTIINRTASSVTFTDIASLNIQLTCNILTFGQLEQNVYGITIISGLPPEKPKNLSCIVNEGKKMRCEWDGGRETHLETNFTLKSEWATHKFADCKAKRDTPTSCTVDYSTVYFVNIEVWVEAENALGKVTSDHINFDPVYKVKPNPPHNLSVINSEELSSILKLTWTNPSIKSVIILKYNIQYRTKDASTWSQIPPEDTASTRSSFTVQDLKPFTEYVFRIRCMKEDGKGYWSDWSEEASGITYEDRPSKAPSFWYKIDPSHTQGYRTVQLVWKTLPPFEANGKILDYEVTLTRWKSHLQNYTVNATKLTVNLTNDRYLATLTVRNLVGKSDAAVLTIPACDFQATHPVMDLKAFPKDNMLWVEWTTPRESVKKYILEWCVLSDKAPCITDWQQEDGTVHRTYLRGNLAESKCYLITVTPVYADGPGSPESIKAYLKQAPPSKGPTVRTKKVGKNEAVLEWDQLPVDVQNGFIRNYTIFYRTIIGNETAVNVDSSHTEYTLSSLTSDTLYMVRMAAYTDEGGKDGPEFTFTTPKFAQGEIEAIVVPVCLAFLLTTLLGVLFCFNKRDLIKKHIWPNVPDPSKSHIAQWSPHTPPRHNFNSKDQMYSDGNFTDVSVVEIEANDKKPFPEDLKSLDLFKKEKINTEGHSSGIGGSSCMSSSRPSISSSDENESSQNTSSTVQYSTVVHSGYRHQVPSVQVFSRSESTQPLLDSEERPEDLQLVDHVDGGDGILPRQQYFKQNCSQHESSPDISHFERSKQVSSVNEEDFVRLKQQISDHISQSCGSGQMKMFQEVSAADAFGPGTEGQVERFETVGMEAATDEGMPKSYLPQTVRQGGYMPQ
The experiment in a line: FACS, 10 nM mAb, IMR-32/Stat3-luc cells, competitor 1 uM hGP130.mmh. An excerpt: (§1) In order to assess cell binding by anti-GP130 antibodies of the invention two cell lines were generated. One cell line generated was HEK293 cells stably over-expressing full length (FL) human gp130 (amino acids 1-918 of accession # P40189 with leucine at position 2 changed to valine, a natural variant) along with a luciferase reporter (Stat3-luciferase, Stat3-luc, SA Bioscience, #CLS-6028L). The cells were sorted twice using flow cytometry for high expression of gp130. It is known hereafter as HEK293/Stat3-luc/gp130-2X Sort. IMR-32 cells (human Neuroblastoma, ATCC), were also evaluated for cell binding as these cells express gp130 endogenously and were used for bioassays. The cells used for binding were generated to stably express a luciferase reporter (Stat3-luciferase, Stat3-luc, SA Bioscience, #CLS-6028L), and are referred to hereafter as IMR-32/STAT3-Luc cells.
(§2) For the FACS analysis, 10 nM of the antibodies were used to stain 0.5×10^6 cells/well of each cell type at 4° C. in PBS (without calcium and magnesium) containing 2% FBS for 30 minutes. IMR-32/STAT3-luc cells were incubated with 1 mg/mL mouse IgG for 30 minutes at 4° C. to block Fc receptors prior to adding the antibodies. To test whether the anti-gp130 antibody binding is specific for gp130 on the IMR-32 cells, antibodies were added to IMR-32/Stat3-luc cells with or without being pre-bound to 1000 nM of recombinant protein of the ecto-domain of human gp130 fused to myc-myc-his tag (hgp130.mmh) for 30 minutes at 25° C. […] Cells were fixed using BD CytoFix™ (Becton Dickinson, #554655) and analyzed on an IQue® (Intellicyt®) Flow Cytometer. Unstained and secondary antibody alone controls were also tested for all cell lines. The results were analyzed using ForeCyt® (IntelliCyt®) software to determine the geometric means of fluorescence for viable cells.
(Flow cytometry measures light scatter and fluorescence of single cells or particles in a stream.)

The target of test [3] is T2, human gp130 expressed endogenously on …. The test can be described thus: FACS, 10 nM mAb, IMR-32/Stat3-luc cells, no hGP130.mmh.
Description: as §1, §2

For test [4], the target named is T3, full length (FL) human gp130 over-expressed on HEK293/Stat3-luc/gp130-2X Sort cells (human, UniProt P40189 23-918).
T3 construct: whole, on cells
T3 sequence (looked up): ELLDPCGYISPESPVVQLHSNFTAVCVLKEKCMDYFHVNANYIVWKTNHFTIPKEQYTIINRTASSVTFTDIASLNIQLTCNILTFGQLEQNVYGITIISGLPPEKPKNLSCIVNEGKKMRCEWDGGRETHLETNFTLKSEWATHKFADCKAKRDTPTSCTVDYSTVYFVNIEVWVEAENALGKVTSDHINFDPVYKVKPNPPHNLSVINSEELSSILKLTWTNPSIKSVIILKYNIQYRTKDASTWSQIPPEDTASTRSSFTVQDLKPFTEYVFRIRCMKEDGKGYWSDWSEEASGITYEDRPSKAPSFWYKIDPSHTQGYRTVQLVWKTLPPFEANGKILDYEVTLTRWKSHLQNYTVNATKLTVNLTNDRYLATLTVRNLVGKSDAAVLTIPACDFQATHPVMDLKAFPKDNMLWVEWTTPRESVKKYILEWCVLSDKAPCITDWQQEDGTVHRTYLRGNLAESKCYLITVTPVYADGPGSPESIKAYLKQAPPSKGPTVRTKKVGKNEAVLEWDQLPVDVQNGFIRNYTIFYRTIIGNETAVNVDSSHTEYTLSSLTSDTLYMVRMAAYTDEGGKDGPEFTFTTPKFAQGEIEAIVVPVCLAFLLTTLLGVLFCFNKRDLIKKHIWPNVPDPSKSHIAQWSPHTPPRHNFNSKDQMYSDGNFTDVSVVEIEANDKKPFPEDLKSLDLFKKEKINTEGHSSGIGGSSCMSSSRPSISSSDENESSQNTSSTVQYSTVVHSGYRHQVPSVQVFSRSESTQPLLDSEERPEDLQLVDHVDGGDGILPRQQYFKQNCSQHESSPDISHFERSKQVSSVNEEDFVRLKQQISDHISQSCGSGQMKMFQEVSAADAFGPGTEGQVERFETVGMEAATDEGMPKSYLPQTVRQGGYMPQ
The experiment in a line: FACS, 10 nM mAb, 293/Stat3-luc/GP130 2X sort cells.
Description: as §1, §2

Consider one molecule from patent US20190185562A1 (Regeneron, published 2019).

Some results are limits rather than exact numbers.

B1: MAb16666 (antibody, V domains shown)
VH: EVQLVESGGGLVQSGGSLRLSCAASGFTFSRYEMNWVRQAPGKGLEWVAYISNTGTTRDYSDSVKGRFTISRDNAKNSLYLQMSSLRVEDTAVYYCVREKFSGTSDWFDPWGQGTLVTVSS
VL: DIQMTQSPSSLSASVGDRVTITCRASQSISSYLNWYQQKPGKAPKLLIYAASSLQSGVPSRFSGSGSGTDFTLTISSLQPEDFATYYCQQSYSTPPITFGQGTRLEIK
notes: Variable domains only
As for B1, the IC50 in test [1] was less than 1.25 nM. Further, the “MFI - Normalized to Unstained Control” value stood at 8 in test [2], 23 in test [3] and 159 in test [4].

In general, IC50 refers to the concentration that inhibits the measured activity by half. Low readings indicate inhibition by little substance, high ones a need for much substance.
